These results are taken from PMC9620470 (Cell chemical biology, 2022).

This assay has as its target EPHA4-Flag protein purified from transfected 293FT cells (human, UniProt P54764 20-986). As to the kind of experiment: pull-down.

Numbering of substitutions follows the chain as printed. Names may count otherwise.

Chain of EPHA4-Flag protein purified from transfected 293FT cells (P54764 20-986): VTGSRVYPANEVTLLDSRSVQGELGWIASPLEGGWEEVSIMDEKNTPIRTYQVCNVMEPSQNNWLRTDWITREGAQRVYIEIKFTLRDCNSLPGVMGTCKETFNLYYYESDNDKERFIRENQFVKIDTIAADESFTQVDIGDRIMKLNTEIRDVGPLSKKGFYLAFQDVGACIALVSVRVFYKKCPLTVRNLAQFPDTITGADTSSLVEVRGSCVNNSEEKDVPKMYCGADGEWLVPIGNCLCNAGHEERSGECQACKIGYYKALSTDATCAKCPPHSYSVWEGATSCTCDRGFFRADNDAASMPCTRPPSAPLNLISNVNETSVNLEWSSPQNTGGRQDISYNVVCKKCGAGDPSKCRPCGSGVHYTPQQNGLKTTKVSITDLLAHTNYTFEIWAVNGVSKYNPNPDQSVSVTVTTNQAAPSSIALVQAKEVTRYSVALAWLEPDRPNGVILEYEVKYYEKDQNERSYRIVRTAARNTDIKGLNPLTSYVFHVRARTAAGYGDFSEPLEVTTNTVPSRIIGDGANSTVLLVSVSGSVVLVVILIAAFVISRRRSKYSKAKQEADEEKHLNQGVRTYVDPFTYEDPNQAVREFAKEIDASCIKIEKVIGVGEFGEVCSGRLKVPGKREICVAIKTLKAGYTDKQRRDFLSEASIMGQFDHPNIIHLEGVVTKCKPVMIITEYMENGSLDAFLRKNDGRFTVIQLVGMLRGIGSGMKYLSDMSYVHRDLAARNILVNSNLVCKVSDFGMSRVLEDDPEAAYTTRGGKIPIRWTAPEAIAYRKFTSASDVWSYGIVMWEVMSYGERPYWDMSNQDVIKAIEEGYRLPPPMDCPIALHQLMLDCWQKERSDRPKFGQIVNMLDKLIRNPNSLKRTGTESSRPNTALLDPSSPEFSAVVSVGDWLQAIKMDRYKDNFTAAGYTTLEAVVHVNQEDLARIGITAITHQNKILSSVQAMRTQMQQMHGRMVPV

B1: GST-GMPR, bacterially purified (enzyme, human)
chain: MPRIDADLKLDFKDVLLRPKRSSLKSRAEVDLERTFTFRNSKQTYSGIPIIVANMDTVGTFEMAAVMSQHSMFTAIHKHYSLDDWKLFATNHPECLQNVAVSSGSGQNDLEKMTSILEAVPQVKFICLDVANGYSEHFVEFVKLVRAKFPEHTIMAGNVVTGEMVEELILSGADIIKVGVGPGSVCTTRTKTGVGYPQLSAVIECADSAHGLKGHIISDGGCTCPGDVAKAFGAGADFVMLGGMFSGHTECAGEVFERNGRKLKLFYGMSSDTAMNKHAGGVAEYRASEGKTVEVPYKGDVENTILDILGGLRSTCTYVGAAKLKELSRRATFIRVTQQHNTVFS
Consider B1, for which the binding result is recorded as “binds”.

B2: GST-GMPR^Y267F, bacterially purified (enzyme, human)
chain: B1 chain with Y267F
Take B2: the binding result is on record as “binds”.
